Results reported in patent US20260152565A1 (Dana-Farber, published 2026).
Where two headings read alike, the source gives them in different places.

T1: BCMA on cells, species not stated (Homo sapiens (Human), UniProt Q02223 1-184)
T1 construct: also called BCMA cells; 3T3 BCMA cells
T1 sequence: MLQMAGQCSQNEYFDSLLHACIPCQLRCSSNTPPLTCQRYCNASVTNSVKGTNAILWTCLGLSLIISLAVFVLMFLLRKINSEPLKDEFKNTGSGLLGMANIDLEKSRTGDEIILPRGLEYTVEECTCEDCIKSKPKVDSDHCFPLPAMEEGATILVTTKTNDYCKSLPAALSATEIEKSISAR

T2: human BCMA (TNFRSF17) expressed on cells (human, UniProt Q02223 1-184)
T2 construct: whole, on cells; also called HEK 293T-hu BCMA cells; human BCMA cell lines
T2 sequence (looked up): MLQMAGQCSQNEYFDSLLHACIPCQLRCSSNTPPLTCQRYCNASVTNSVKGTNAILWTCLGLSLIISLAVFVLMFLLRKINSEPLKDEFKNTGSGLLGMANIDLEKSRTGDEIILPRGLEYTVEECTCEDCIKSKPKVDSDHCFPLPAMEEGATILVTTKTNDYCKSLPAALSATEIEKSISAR

T3: hBCMA-his-biotin (Acro, BCA-H82E4) (human, UniProt Q02223 1-54, biotin (as printed: hBCMA-his-biotin; site not stated))
T3 construct: Bought reagent; not shown: His tag
T3 sequence (looked up): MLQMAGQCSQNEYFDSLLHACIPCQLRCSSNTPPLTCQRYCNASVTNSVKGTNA


Assays:
[1] = target: T1, BCMA on cells, species not stated; experiment: blocking of BAFF binding to BCMA cells
EGFR = target: T4, EGFR (human, UniProt P00533 25-1210); experiment: cell microarray, confirmation screen, control receptor; cell left blank in Table 13
T4 construct: whole, on cells; also called control receptor
Description: In order to screen the on-target specificity of one of the VH-only anti-BCMA-targeted CARs, the Retrogenix Cell Microarray Technology platform was employed, which is a high-throughput platform for screening binding interactions between a test molecule and about 6100 human surfaceome proteins.
This was performed on both fixed and live cells (FIGS. 11A-11D).

[2] = target: T1, BCMA on cells, species not stated; experiment: cell binding, MFI against antibody concentration, panel title Bind to NCI-H929 cell
[3] = target: T2, human BCMA (TNFRSF17) expressed on cells; experiment: cell binding, MFI against antibody concentration, HEK 293T-hu BCMA cells (cell line from legend paragraph 17)
[4] = target: T5, cynomolgus monkey BCMA expressed on HEK 293T cells (cynomolgus monkey, UniProt A0A2K5UD97 1-183); experiment: cell binding, MFI against antibody concentration, panel title Bind to HEK293T - cyno BCMA
T5 construct: also called HEK 293T-cyno BCMA cells; cyno BCMA

[5] = target: T3, hBCMA-his-biotin (Acro, BCA-H82E4); experiment: biosensor kinetics, SA sensor loaded with hBCMA-his-biotin, antibody in solution
Description: (§1) The sensor was streptavidin (SA), loaded with hBCMA-his-biotin from Acro catalog number BCA-H82E4, and 50 nM antibody with a 1:2 dilution factor. Association times in FIG. 5A-FIG. 5C were each 600 s and dissociation times were each 900 s.

[6] = target: T3, hBCMA-his-biotin (Acro, BCA-H82E4); experiment: as above; remark: listed apart in the source
Description: as §1

T5 sequence (A0A2K5UD97 entry or part of it limits assumed): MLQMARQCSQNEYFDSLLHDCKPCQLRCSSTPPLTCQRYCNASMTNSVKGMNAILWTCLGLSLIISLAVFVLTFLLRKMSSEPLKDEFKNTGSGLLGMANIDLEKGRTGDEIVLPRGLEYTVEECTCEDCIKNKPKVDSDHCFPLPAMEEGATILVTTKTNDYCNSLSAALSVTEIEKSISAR

Row | Binder | Span [1] | binding result (EGFR) | EC50 (read off the curve) [2] [nM] | EC50 (read off the curve) [3] [µg/mL] | binding result [4] | Kd [5] [nM] | koff [5] [s⁻¹] | kon [5] [M⁻¹ s⁻¹] | Kd [6] [nM] | koff [6] [s⁻¹] | kon [6] [M⁻¹ s⁻¹]
1 | PR001046 (antibody, V domains shown, also called HCAb antibody PR001046; PR001046 VH-only human IgG1 test antibody; not shown: constant part (CH2 and CH3)) VH: EVQLVETGGGLIQPGGSLRLSCAASGFTVSDNYMTWVRQAPGKGLEWVSVIFSGGNTYYADSVKGRFTISRDNAKNTLYLQMNSLRAEDTALYYCARRNYDDTRGTDVFDIWGQGTMVTVSS | 1.99 | no binding (tested: 2.5 µg/mL) | ~2 | ~0.02 |  |  |  |  |  |  | 
2 | PR000943 (antibody, V domains shown, also called HCAb antibody PR000943; not shown: constant part (CH2 and CH3 regions of the Harbour HCAb format)) VH: EVQLVETGGGLIQPGGSLRLSCAASGFPVSSNYMSWVRQAPGKGLEWVSVIFSGGRTYYADSVKGRFTISRDNSKNTLYLQMNSLRAEDTAVYYCARRNWIDGRDAFDIWGQGTMVTVSS | 2.19 |  | ~4 | ~0.01 |  |  |  |  |  |  | 
3 | PR001035 (antibody, V domains shown, also called HCAb antibody PR001035; not shown: constant part (CH2 and CH3 regions of the Harbour HCAb format)) VH: EVQLVETGGGLIQPGGSLRLSCAASGFTVSSNYMTWVRQAPGKGLEWVSVIFSGGSTYYADSVKGRFTISRDNSKNTLYLQMNSLRAEDTAVYYCARRIAVAGHDVFDIWGQGTMVTVSS | 1.92 |  | ~1 | ~0.02 |  |  |  |  |  |  | 
4 | PR000940 (antibody, V domains shown, Heavy chain-only antibody from Harbour HCAb mice: dimer of two heavy chains, each with VH, CH2 and CH3; also called HCAb antibody PR000940; not shown: constant part (CH2 and CH3 regions of the Harbour HCAb format)) VH: EVQLLESGGGLVQPGGSLRLSCAASGFTFSSYAMIWVRQAPGKGLEWVSGISESGGSTYYADSVKGRFTISRDNSKNTLYLQMNSLRAEDTAVYFCVKDLDDILTGYYKDYWGQGTLVTVSS |  |  | ~2 |  | no binding |  |  |  |  |  | 
5 | PR000274 (clone CA8-J6M0) (antibody, V domains shown) VH: QVQLVQSGAEVKKPGSSVKVSCKASGGTFSNYWMHWVRQAPGQGLEWMGATYRGHSDTYYNQKFKGRVTITADKSTSTAYMELSSLRSEDTAVYYCARGAIYDGYDVLDNWGQGTLVTVSS VL: DIQMTQSPSSLSASVGDRVTITCSASQDISNYLNWYQQKPGKAPKLLIYYTSNLHSGVPSRFSGSGSGTDFTLTISSLQPEDFATYYCQQYRKLPWTFGQGTKLEIKR | 1.86 |  | ~10 |  |  | < 0.001 | < 1e-07 | 228000 | < 0.001 | < 1e-07 | 195000
